Article PMC8302766

Assays:
Settings in all cases: domain or fragment, No outside chemistry for unlabelled SAXS/AUC samples. Limits are not given, convention is residues 186-320 of short isoform A1-A (isoform B insert 252-303 absent). The hexapeptide 259-264 (311-316 in P09651) is taken as deleted because the printed 7.5 mg/mL = 0.598 mM gives about 12.54 kDa, which fits the delta-hexa form plus an assumed N-terminal GS cleavage scar (about 12.53 kDa), modification not given
[1] = biological target: low-complexity domain of hnRNPA1 (A1-LCD); assay: AUC; two-step isodesmic model, KD2 (later steps), 50 mM NaCl
[2] = biological target: low-complexity domain of hnRNPA1 (A1-LCD); assay: AUC; two-step isodesmic model, KD1 (first step), 50 mM NaCl
[3] = biological target: low-complexity domain of hnRNPA1 (A1-LCD); assay: AUC; isodesmic model, 50 mM NaCl

B1: low-complexity domain of hnRNPA1 (A1-LCD) (protein)
chain: MASASSSQRGRSGSGNFGGGRGGGFGGNDNFGRGGNFSGRGGFGGSRGGGGYGGSGDGYNGFGNDGSNFGGGGNYNNQSSNFGPMKGGNFGGRSSGPYGGGGQYFAKPRNQGGYGGSSSSSSYGSGRRF
[1]
  Kd: 2200 µM
[2]
  Kd: 5400 µM
[3]
  Kd: 3000 µM
